Molecular target: IGF2 (Homo sapiens, UniProt P01344)
Sequence (P01344 25-91): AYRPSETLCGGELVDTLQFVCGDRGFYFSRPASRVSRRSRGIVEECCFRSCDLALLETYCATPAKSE

- Kd: 15 nM
B1: IGF2R domain 11 (protein)
chain: MKSNEHDDCQVTNPSTGHLFDLSSLSGRAGFTAAYSKSGVVYMSICGENENCPPGVGACFGQTRISVGKANKRLRYVDQVLQLVYKDGSPCPSKSGLSYKSVISFVCRPEARPTNRPMLISLDKQTCTLFFSWHTPLACEQAT

Reference: paper PMC4658703 (2012)
